Data reported in US20120276102A1 (Pfizer, published 2012).

T1: human IL-2Rβ (human, UniProt P14784 27-239)
T1 sequence (looked up): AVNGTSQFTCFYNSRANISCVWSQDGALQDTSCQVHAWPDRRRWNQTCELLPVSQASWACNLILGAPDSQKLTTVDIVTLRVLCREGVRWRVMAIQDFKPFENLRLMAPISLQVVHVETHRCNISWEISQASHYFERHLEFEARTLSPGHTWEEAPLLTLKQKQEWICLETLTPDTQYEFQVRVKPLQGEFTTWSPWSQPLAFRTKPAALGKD

T2: human gamma (γ) common chain expressed on CHO cells (human, UniProt P31785 23-369)
T2 construct: whole, on cells; Control protein; also called human IL-2R-γ common subunit; human γ-common
T2 sequence (looked up): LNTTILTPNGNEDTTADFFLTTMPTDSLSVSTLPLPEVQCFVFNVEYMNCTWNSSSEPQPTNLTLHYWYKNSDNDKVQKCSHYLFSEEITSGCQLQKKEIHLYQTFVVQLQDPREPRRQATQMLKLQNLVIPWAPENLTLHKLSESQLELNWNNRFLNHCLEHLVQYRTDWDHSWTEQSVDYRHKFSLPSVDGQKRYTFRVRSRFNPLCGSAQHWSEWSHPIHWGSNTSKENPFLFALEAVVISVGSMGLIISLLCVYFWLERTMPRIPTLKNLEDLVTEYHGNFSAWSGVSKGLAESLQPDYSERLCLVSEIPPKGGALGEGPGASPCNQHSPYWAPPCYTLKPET


Tests used:
[1] = target: T3, cynomolgus monkey IL-21R expressed on cells (cynomolgus monkey, UniProt G7Q0S8 41-559); assay: cell-based ELISA on CHO cells transiently expressing cynomolgus monkey IL-21R; HRP anti-human IgG, A450
T3 construct: whole, on cells
Experimental: (§1) FIG. 6(a-l) depicts the binding of 21 anti-IL-21R IgGs to CHO cells transiently expressing human IL-21R (FIGS. 6a-c), rat IL-21R (FIGS. 6d-f), cynomolgus monkey IL-21R (FIGS. 6g-i), and human gamma common chain (FIGS. 6j-1). CHO cells were transiently transfected with IL-21R or the control gamma common chain, and binding was detected with HRP-conjugated anti-human IgG in a cell-based ELISA.
(§2) A subset of binding proteins was tested for binding to rat, cynomolgus monkey, human IL-21R, or human IL-2R-γ common subunit expressed transiently on the surfaces of CHO-PA-Dukx cells. Cells were transfected 48 hr prior to the assay. On the day of the assay, cells were washed gently 5× in PBS containing 0.9 mM CaCl₂ and 0.45 mM MgCl₂ (PBS/CaMg) on an automated plate washer (Titertek, Huntsville, Ala.), and blocked for 1 hr at RT in PBS/CaMg/5% nonfat dry milk. Conditioned media from transiently expressed anti-IL-21R IgGs were serially diluted in blocking buffer and added to the cells in the blocked plates for 1 hr at RT. Cells were washed 5× with PBS/CaMg and then incubated with horseradish peroxidase-conjugated anti-human IgG for 1 hr at RT. Cells were then washed 10× in PBS/CaMg and all of the wash buffer was removed. Cells were incubated with 100 μl TMB until the color reaction reached saturation, stopped with 100 μl of 0.18 M H₂SO₄, and read at A450 on a Perkin Elmer ENVISION™ plate reader.

[2] = target: T4, human IL-21R expressed on cells (human, UniProt Q9HBE5 20-538); assay: cell-based ELISA on CHO cells transiently expressing human IL-21R; HRP anti-human IgG, A450
T4 construct: also called human IL-21R-BaF3; human IL-21R-TF1
T4 sequence (Q9HBE5 20-538 limits assumed): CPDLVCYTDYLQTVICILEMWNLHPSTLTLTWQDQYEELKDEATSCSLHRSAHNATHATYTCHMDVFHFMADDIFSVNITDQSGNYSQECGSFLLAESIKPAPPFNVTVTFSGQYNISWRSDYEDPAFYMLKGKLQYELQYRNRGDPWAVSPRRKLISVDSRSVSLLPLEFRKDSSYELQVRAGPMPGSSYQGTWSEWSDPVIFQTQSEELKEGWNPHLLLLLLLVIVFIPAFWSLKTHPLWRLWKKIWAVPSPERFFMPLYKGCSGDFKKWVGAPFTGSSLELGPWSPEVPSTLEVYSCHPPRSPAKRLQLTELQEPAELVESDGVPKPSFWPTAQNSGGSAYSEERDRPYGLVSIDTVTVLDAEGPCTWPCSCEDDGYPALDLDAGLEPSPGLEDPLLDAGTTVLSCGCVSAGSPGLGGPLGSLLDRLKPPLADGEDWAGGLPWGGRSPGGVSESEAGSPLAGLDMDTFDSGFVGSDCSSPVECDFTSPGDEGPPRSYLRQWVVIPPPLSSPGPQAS
Experimental: as §1, §2

[3] = target: T4, human IL-21R expressed on cells; assay: cell ELISA, CHO cells
Experimental: as §2

[4] = target: T3, cynomolgus monkey IL-21R expressed on …; assay: cell ELISA, CHO cells
Experimental: as §2

[5] = target: T5, rat IL-21R expressed on cells (rat); assay: cell ELISA, CHO cells
T5 construct: whole, on cells
Experimental: as §2

[6] = target: T4, human IL-21R expressed on cells; assay: cell-based or functional assay
[7] = target: murine IL-21R expressed on cells (murine, UniProt Q9JHX3 20-529); assay: cell-based or functional assay
murine IL-21R expressed on cells, sequence (Q9JHX3 20-529 limits assumed): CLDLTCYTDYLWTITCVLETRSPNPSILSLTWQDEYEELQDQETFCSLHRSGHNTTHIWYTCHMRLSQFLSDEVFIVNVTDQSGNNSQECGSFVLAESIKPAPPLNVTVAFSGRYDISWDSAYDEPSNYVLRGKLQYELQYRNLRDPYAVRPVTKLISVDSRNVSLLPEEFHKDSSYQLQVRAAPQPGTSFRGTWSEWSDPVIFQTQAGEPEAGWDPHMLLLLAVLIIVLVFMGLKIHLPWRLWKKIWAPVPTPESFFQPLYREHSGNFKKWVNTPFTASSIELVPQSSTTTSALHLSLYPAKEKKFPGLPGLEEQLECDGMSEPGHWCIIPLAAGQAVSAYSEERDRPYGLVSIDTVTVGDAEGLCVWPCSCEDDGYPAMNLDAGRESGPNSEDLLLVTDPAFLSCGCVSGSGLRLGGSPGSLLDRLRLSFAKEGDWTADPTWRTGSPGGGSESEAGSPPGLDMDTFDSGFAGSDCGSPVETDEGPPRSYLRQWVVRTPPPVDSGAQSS

[8] = target: T6, human IL-13-His/FLAG (human, UniProt P35225 35-146, limits assumed); assay: SPR, Ab captured
T6 construct: Unrelated His/FLAG-tagged control; also called human IL-13-H/F
T6 sequence (P35225 35-146 limits assumed): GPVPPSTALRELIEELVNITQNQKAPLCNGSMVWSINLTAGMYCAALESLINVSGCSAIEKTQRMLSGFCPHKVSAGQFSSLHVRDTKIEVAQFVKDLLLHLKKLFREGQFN
Experimental: (§3) The specificity of binding of a subset of transiently expressed anti-IL-21R binding proteins (here antibodies) was tested on a BIACORE™ 2000 surface plasmon resonance instrument. Anti-human-IgG, anti-murine immunoglobulin antibodies, and murine IL-21R-H/F were immobilized onto a research-grade carboxymethyl-dextran chip (CM5) using standard amine coupling. The sensor chip surface was activated with EDC/NHS for 7 min at a flow rate of 20 μl/min. The first flow cell was used as reference surface to correct for bulk refractive index, matrix effects, and nonspecific binding. […] Remaining activated groups were blocked with 1.0 M ethanolamine (pH 8.0). The molecular weights of the anti-human IgG and the anti-murine IgG were both 150 kD, and the molecular weight of the IL-21R monomer was 27 kD.
(§4) Conditioned media containing anti-IL-21R antibodies and antibody controls (murine anti-human IL-2Rβ and murine anti-human IL-4R(R&D Systems, Minneapolis, Minn.); human anti-human IL-13 (Wyeth, Cambridge, Mass.)) were diluted in HBS/EP buffer supplemented with 0.2% bovine serum and injected onto all four flow cells of the BIACORE™ chip, capturing 500-700 (RU) of antibody on the species-appropriate capture antibody. Following a 5 sec washing period, 50 nM solutions of a positive control protein (murine IL-21R-H/F), two human proteins related to IL-21R (human IL-2Rβ and human sIL-4R(R&D Systems)), or an unrelated His/FLAG-tagged protein (human IL-13-H/F) were injected over the captured antibodies on the chip. The association and dissociation phases were monitored for 120 and 180 sec, respectively, followed by two 5 μl injections of glycine (pH 1.5) to regenerate a fully active capturing surface. All binding experiments were done at 25° C. in HBS/EP buffer. Blank and buffer effects were subtracted for each sensorgram using double referencing.

[9] = target: T7, human soluble IL-4R (human, UniProt P24394 26-232, limits assumed); assay: SPR, Ab captured
T7 construct: also called human sIL-4R
Experimental: as §3, §4

[10] = target: T1, human IL-2Rβ; assay: SPR, Ab captured
Experimental: as §3, §4

[11] = target: T2, human gamma (γ) common chain expressed …; assay: cell ELISA, CHO cells
Experimental: as §2

[12] = target: T2, human gamma (γ) common chain expressed …; assay: cell-based ELISA on CHO cells transiently expressing human gamma common chain; HRP anti-human IgG, A450
Experimental: as §1, §2

[13] = target: T5, rat IL-21R expressed on cells; assay: cell-based ELISA on CHO cells transiently expressing rat IL-21R; HRP anti-human IgG, A450
Experimental: as §1, §2

Binder | EC50 (read off the curve) [1] [nM] | EC50 (read off the curve) [2] [nM] | A450 (13 nM Ab) [3] [A450] | A450 (13 nM Ab) [4] [A450] | A450 (13 nM Ab) [5] [A450] | Human IL-21R-BaF3 Proliferation IC50 [6] [nM] | Human IL-21R-TF1 Proliferation IC50 [6] [nM] | Murine IL-21R-BaF3 Proliferation IC50 [7] [nM] | binding result [8] | binding result [9] | binding result [10] | A450 (13 nM Ab) [11] [A450] | binding result [12] | EC50 (read off the curve) [13] [nM]
AbD (antibody, IgG1, V domains shown, As for AbA: IgG1/lambda, CDR3 graft, residue limits derived; also called VHP/VL13) VH: QVQLQESGPGLVKPSETLSLTCAVSGYSISSGYYWGWIRQPPGKGLEWIGSISHTGNTYYNPPLKSRVTISVDTSKNQFSLKLSSVTAADTAVYYCARGGGISRPEYWGQGTLVTVSS VL: SSELTQDPAVSVALGQTVRITCQGDSLRTYYASWYQQKPGQAPVLVIYGKHKRPSGIPDRFSGSSSGNTASLTITGAQAEDEADYYCVTRNRYGNPHVLFGGGTQLTVL | ~2 | ~0.9 | 1.25 | 1.38 | 0.874 | 0.91 | 2.67 | 0.01 | no binding (tested: 50 nM) | no binding (tested: 50 nM) | no binding (tested: 50 nM) | – | – | –
AbE (antibody, IgG1, V domains shown, As for AbA: IgG1/lambda, CDR3 graft, residue limits derived; also called VHP/VL14) VH: QVQLQESGPGLVKPSETLSLTCAVSGYSISSGYYWGWIRQPPGKGLEWIGSISHTGNTYYNPPLKSRVTISVDTSKNQFSLKLSSVTAADTAVYYCARGGGISRPEYWGQGTLVTVSS VL: SSELTQDPAVSVALGQTVRITCQGDSLRTYYASWYQQKPGQAPVLVIYGKHKRPSGIPDRFSGSSSGNTASLTITGAQAEDEADYYCMARSRKGNPHVLFGGGTQLTVL | – | – | 1.26 | 1.42 | 1.11 | 0.56 | 2.28 | 0.04 | no binding (tested: 50 nM) | no binding (tested: 50 nM) | no binding (tested: 50 nM) | – | – | ~0.8
AbH (antibody, IgG1, V domains shown, As for AbA: IgG1/lambda, CDR3 graft, residue limits derived; also called VHP/VL19) VH: QVQLQESGPGLVKPSETLSLTCAVSGYSISSGYYWGWIRQPPGKGLEWIGSISHTGNTYYNPPLKSRVTISVDTSKNQFSLKLSSVTAADTAVYYCARGGGISRPEYWGQGTLVTVSS VL: SSELTQDPAVSVALGQTVRITCQGDSLRTYYASWYQQKPGQAPVLVIYGKHKRPSGIPDRFSGSSSGNTASLTITGAQAEDEADYYCVARAVRGNPHVLFGGGTQLTVL | ~0.5 | ~0.4 | 1.35 | 1.32 | 1.1 | 0.94 | 3.64 | 0.327 | no binding (tested: 50 nM) | no binding (tested: 50 nM) | no binding (tested: 50 nM) | – | – | –
AbF (antibody, IgG1, V domains shown, As for AbA: IgG1/lambda, CDR3 graft, residue limits derived; also called VHP/VL17) VH: QVQLQESGPGLVKPSETLSLTCAVSGYSISSGYYWGWIRQPPGKGLEWIGSISHTGNTYYNPPLKSRVTISVDTSKNQFSLKLSSVTAADTAVYYCARGGGISRPEYWGQGTLVTVSS VL: SSELTQDPAVSVALGQTVRITCQGDSLRTYYASWYQQKPGQAPVLVIYGKHKRPSGIPDRFSGSSSGNTASLTITGAQAEDEADYYCSTRSRKGNPHVLFGGGTQLTVL | ~0.5 | ~0.5 | 1.35 | 1.46 | 1 | 0.54 | 2.41 | 0.304 | no binding (tested: 50 nM) | no binding (tested: 50 nM) | no binding (tested: 50 nM) | – | – | ~0.7

Continued, values first:

EC50 (read off the curve) [1] [nM] | EC50 (read off the curve) [2] [nM] | A450 (13 nM Ab) [3] [A450] | A450 (13 nM Ab) [4] [A450] | A450 (13 nM Ab) [5] [A450] | Human IL-21R-BaF3 Proliferation IC50 [6] [nM] | Human IL-21R-TF1 Proliferation IC50 [6] [nM] | Murine IL-21R-BaF3 Proliferation IC50 [7] [nM] | binding result [8] | binding result [9] | binding result [10] | A450 (13 nM Ab) [11] [A450] | binding result [12] | EC50 (read off the curve) [13] [nM] | Binder
~0.4 | ~0.9 | 1.24 | 1.21 | 1.09 | 1 | 3.8 | 0.224 | no binding (tested: 50 nM) | no binding (tested: 50 nM) | no binding (tested: 50 nM) | 0.107 | no binding (tested: 13 nM) | – | AbI (antibody, IgG1, V domains shown, As for AbA: IgG1/lambda, CDR3 graft, residue limits derived; also called VHP/VL24) VH: QVQLQESGPGLVKPSETLSLTCAVSGYSISSGYYWGWIRQPPGKGLEWIGSISHTGNTYYNPPLKSRVTISVDTSKNQFSLKLSSVTAADTAVYYCARGGGISRPEYWGQGTLVTVSS VL: SSELTQDPAVSVALGQTVRITCQGDSLRTYYASWYQQKPGQAPVLVIYGKHKRPSGIPDRFSGSSSGNTASLTITGAQAEDEADYYCIARSNKGNPHVLFGGGTQLTVL
~0.9 | ~1 | 1.45 | 1.51 | 1.26 | 0.68 | 4.25 | 0.227 | no binding (tested: 50 nM) | no binding (tested: 50 nM) | no binding (tested: 50 nM) | – | – | – | AbL (antibody, IgG1, V domains shown, As for AbA: IgG1/lambda, CDR3 graft, residue limits derived; also called VH3/VL13) VH: QVQLQESGPGLVKPSETLSLTCAVSGYSISSGYYWGWIRQPPGKGLEWIGSISHTGNTYYNPPLKSRVTISVDTSKNQFSLKLSSVTAADTAVYYCARFMGFGRPEYWGQGTLVTVSS VL: SSELTQDPAVSVALGQTVRITCQGDSLRTYYASWYQQKPGQAPVLVIYGKHKRPSGIPDRFSGSSSGNTASLTITGAQAEDEADYYCVTRNRYGNPHVLFGGGTQLTVL
